Legend:
healthy control samples = experiment: Clonogenic capacity of healthy control samples; assay type: cell-based, human; details: 333 nM, two weeks
Procedure: AML patient samples or healthy control samples (4000 cells) were washed and resuspended in 30 μl Iscove's Modified Dulbecco's Medium (IMDM) media supplemented with 2% FBS. Cells […] were mixed with 3 ml methylcellulose (MthoCult H4034 Optimum) supplemented with pen/strep or primocin (100 μg/ml) and IL1RAP antibodies (333 nM) and 1 ml were seeded in 35 mm dishes in duplicates. The dishes were incubated at 37° C./5% CO2 in humidified incubator for 14-16 days. Colonies were counted using inverted microscope.

AML cells (THP-1) = experiment: Proliferation of AML cells (THP-1), Cell-Titer Glo; assay type: cell-based, human; details: 66 nM, 4 days
Procedure: (§1) AML patient samples or cancer cells (AML and CML) were plated at density of 3×10^3 cells/well in two 96-well plates and incubated overnight at 37° C./5% CO2 in humidified incubator. The next day (Day 1) cells in one of the plates were treated with IL1RAP antibody at 10-150 μg/ml at a total volume of 100 μl. Plates were kept at 37° C./5% CO2 in humified for 3-6 days. Cells treated with vehicle or IgG served as controls and every treatment was conducted in triplicates. The second plate was treated on Day 1 with media and cell proliferation was measured on the same day by CellTiter-Glo (Promega, Cat #G7572). In more details, wells were mixed with equal volume (100 μl) of CellTiter-Glo and agitated for 2 minutes followed by 10 minutes incubation at room temperature in the dark. Luminescence signal was measured in Cytation™ (Biotek) plate reader. After 3-6 days, cell proliferation in the […] plates was measured separately in the same way.

CML cells (K562) = experiment: Proliferation of CML cells (K562), Cell-Titer Glo; assay type: cell-based, human; details: 333 nM, 3 days
Procedure: as §1

[1] = system: IL1-induced downstream signaling (phospho-ERK, AKT, p38, NFκB) in A6L, CAL33, 5637, A549, Colo205, HCC70 cells; experiment: IL1 signaling in solid tumor cancer cells, Western blot; assay type: cell-based; details: antibody 20 μg/ml
Procedure: AML patient samples or cancer cells (AML, chronic myelogenous leukemia (CML), pancreatic, head and neck squamous cell carcinoma (HNSCC), bladder, non-small-cell lung carcinoma (NSCLC), colorectal and triple-negative breast cancer (TNBC)) were seeded in 6-well plates (5×10^5 cells/well) and incubated overnight at 37° C./5% CO2 in humified incubator. In experiments conducted in cancer cell lines, cells were washed 2× with PBS and serum-starved for 3 hours. Following, cells were treated with IL1RAP antibodies at concentration of 20 μg/ml and incubated for 1 h at 37° C./5% CO2 in humidified incubator. After 1 h, cells were treated with IL1β (Invivogen, cat: rcyec-hil1b), IL33 (Adipogen, cat: AG-40B-0160-C010) or IL36 cytokines (R@D, cat: 6836IL) at 100 ng/ml and incubated for 15 more minutes. Cells were harvested on ice after 1× wash with cold PBS and were centrifuged for 5 minutes at 5000 rpm at 4° C. Cells were then lysed with NP-40 buffer for 5 minutes on ice and centrifuged for 15 minutes at 15000 rpm at 4° C. Supernatants were collected and protein concentrations were determined by BCA (Thermofisher, Cat #PI23225). […] After 3× washes, ECL was applied (Thermofisher, Cat #32106) and proteins were detected after exposure to autoradioraphic films (Worldwide medical products, Cat #41101001) and protein intensity was quantitated using ImageJ software.

B1: 74804_12A21B: anti-IL1RAP mAb; VH SEQ ID NO:6, VL SEQ ID NO:23, κ light chain (antibody, V domains shown)
VH: QVQLLQSGAEVKKPGSSVKVSCKASGGTFSIYAIDWVRQAPGQGLEWMGGIIPIFGTANSAQKFQGRVTITADKSTSTAYMELSSLRSEDTAVYYCARNGATSDAFDMWGQGTMVTVSS
VL: EIVLTQSPGTLSLSPGERATLSCRASLSVSSNYLAWFQQRPGQAPRLLIHGVSRRATGIPDRFSGSGSGTDFTLTISRLEPEDFAVYYCQQYGSSPLTFGGGTKVEIK
modifications: 74804_12A21B VH and 74804_29D13A VH; 74804_12A21B VL
Healthy control samples
  Effect on clonogenic capacity of healthy control samples: did not affect the clonogenic capacity of healthy control samples
AML cells (THP-1)
  Inhibition of cell proliferation: inhibited cell proliferation
CML cells (K562)
  Inhibition of cell proliferation: inhibited cell proliferation
[1]
  Inhibition of IL1 signaling (phosphorylation of ERK, AKT, p38 and NFκB): inhibited IL1 signaling in solid tumor cancer cells
